Experimental data: the supplement of paper PMC10724198
± gives the standard deviation of the averaged measurements.

How the values were obtained:
[1] = system: Saccharomyces cerevisiae; assay: protein stability index of tFT-peptide fusion (C-terminal peptide) (PSI (0-1 scale)); higher = more stable (slower turnover); settings: genetic background: wild type; temperature: 30 C
[2] = system: Saccharomyces cerevisiae; assay: as above
Method: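 MPS profiling in S. cerevisiae of the tFT-X12 degron library: putative degron peptides plus stable controls, 12 aa, fused to the C-terminus of a sfGFP-mCherry timer. Cells are FACS-sorted into 8 mCherry/sfGFP bins and deep-sequenced. PSI runs from 0 (unstable) to 1 (stable). Backgrounds are wild type, das1Δ and doa10Δ at 30 °C, and wild type, das1Δ, cdc34-1 and cdc53-1 at 37 °C; 2-3 technical replicates each.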

[3] = genetic background: cdc34-1, temperature: 37 C
[4] = genetic background: cdc53-1, temperature: 37 C
[5] = genetic background: das1 deletion, temperature: 30 C
[6] = genetic background: das1 deletion, temperature: 37 C
[7] = genetic background: doa10 deletion, temperature: 30 C
[8] = genetic background: wild type, temperature: 30 C
[9] = genetic background: wild type, temperature: 37 C
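Also: PSI is a weighted mean of sequencing reads over stability bins, variants kept only with over 10 reads, mCherry proximal and sfGFP distal, peptide attached via GGGS linker.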

Row | Sequence | protein stability index [1] | protein stability index [2, 3] | protein stability index [2, 4] | protein stability index [2, 5] | protein stability index [2, 6] | protein stability index [2, 7] | protein stability index [2, 8] | protein stability index [2, 9]
1 | WVLFRLPYQFFS | 0.436 ± 0.0098 | 0.668 ± 0.048 | 0.707 ± 0.021 | 0.57 ± 0.038 | 0.737 ± 0.026 | 0.368 ± 0.0073 | 0.393 ± 0.022 | 0.633 ± 0.0017
2 | WRCECELASACA | 0.431 ± 0.013 | 0.458 ± 0.015 | 0.473 ± 0.027 | 0.347 ± 0.037 | 0.508 ± 0.0082 | 0.31 ± 0.0062 | 0.361 ± 0.024 | 0.486 ± 0.0079
3 | CSFCSGMILLLS | 0.418 ± 0.0062 | 0.522 ± 0.055 | 0.557 ± 0.018 | 0.433 ± 0.02 | 0.583 ± 0.0064 | 0.391 ± 0.004 | 0.323 ± 0.044 | 0.527 ± 0.028
4 | CAGLLSVSFWLF | 0.499 ± 0.0012 | 0.516 ± 0.024 | 0.589 ± 0.037 | 0.44 ± 0.033 | 0.597 ± 0.022 | 0.351 ± 0.0039 | 0.381 ± 0.017 | 0.552 ± 0.0056
5 | LMVLISVMFSLG | 0.323 ± 0.022 | 0.112 ± 0.0088 | 0.254 ± 0.029 | 0.149 ± 0.022 | 0.292 ± 0.012 | 0.113 ± 0.013 | 0.182 ± 0.032 | 0.231 ± 0.012
6 | PLSNLCRVLTFI | 0.4608 ± 0.0029 | 0.557 ± 0.078 | 0.639 ± 0.0012 | 0.575 ± 0.03 | 0.6394 ± 0.0024 | 0.361 ± 0.0071 | 0.369 ± 0.015 | 0.526 ± 0.0056
7 | IHRSPLTLPLLV | 0.468 ± 0.08 | 0.526 ± 0.021 | 0.584 ± 0.023 | 0.461 ± 0.031 | 0.5726 ± 0.005 | 0.406 ± 0.014 | 0.435 ± 0.019 | 0.5383 ± 0.0043
8 | YIFLPIALVFFP | 0.363 ± 0.083 | 0.435 ± 0.021 | 0.536 ± 0.014 | 0.304 ± 0.037 | 0.543 ± 0.022 | 0.333 ± 0.02 | 0.319 ± 0.014 | 0.488 ± 0.015
9 | VHGWRPLLFHTR | 0.519 ± 0.13 | 0.648 ± 0.032 | 0.668 ± 0.0099 | 0.647 ± 0.0073 | 0.702 ± 0.031 | 0.674 ± 0.024 | 0.622 ± 0.024 | 0.6989 ± 0.0063
10 | LPVPVLGFPPLA | 0.7186 ± 0.0014 | 0.703 ± 0.022 | 0.778 ± 0.018 | 0.664 ± 0.018 | 0.732 ± 0.032 | 0.659 ± 0.027 | 0.655 ± 0.015 | 0.71 ± 0.011
11 | VLVVASLRFSFF | 0.249 ± 0.017 | 0.207 ± 0.054 | 0.34 ± 0.036 | 0.197 ± 0.029 | 0.40083 ± 0.00033 | 0.173 ± 0.019 | 0.2 ± 0.014 | 0.38 ± 0.0063
12 | VRFPVFFIILFL | 0.239 ± 0.018 | 0.0864 ± 0.024 | 0.0743 ± 0.0032 | 0.15 ± 0.029 | 0.235 ± 0.017 | 0.241 ± 0.014 | 0.142 ± 0.029 | 0.202 ± 0.0029
13 | FPPHFLPLVFLS | 0.103 ± 0.0049 | 0.436 ± 0.035 | 0.5867 ± 0.0031 | 0.56 ± 0.026 | 0.67 ± 0.0083 | 0.0786 ± 0.017 | 0.0804 ± 0.02 | 0.0988 ± 0.0048
14 | KVFWRPAWVAEV | 0.371 ± 0.026 | 0.6563 ± 0.0016 | 0.7475 ± 0.0067 | 0.631 ± 0.016 | 0.733 ± 0.0084 | 0.237 ± 0.011 | 0.28 ± 0.034 | 0.512 ± 0.013
15 | FVLWWGWSWLVV | 0.235 ± 0.019 | 0.213 ± 0.01 | 0.30626 ± 6.5e-05 | 0.173 ± 0.027 | 0.318 ± 0.0055 | 0.152 ± 0.0023 | 0.16 ± 0.016 | 0.2824 ± 0.00063
16 | GCVVLNTVAFIC | 0.167 ± 0.037 | 0.492 ± 0.0084 | 0.583 ± 0.017 | 0.448 ± 0.025 | 0.625 ± 0.0075 | 0.108 ± 0.0055 | 0.127 ± 0.019 | 0.136 ± 0.018
17 | LWLVSLLVLWLT | 0.316 ± 0.018 | 0.332 ± 0.035 | 0.375 ± 0.033 | 0.291 ± 0.033 | 0.439 ± 0.011 | 0.239 ± 0.0059 | 0.256 ± 0.02 | 0.383 ± 0.013
18 | LCSVWVGIVLLC | 0.165 ± 0.047 | 0.156 ± 0.011 | 0.236 ± 0.045 | 0.23 ± 0.02 | 0.313 ± 0.014 | 0.0996 ± 0.0034 | 0.0964 ± 0.013 | 0.107 ± 0.019
19 | QPSSFDMLGLLL | 0.742 ± 0.049 | 0.6791 ± 0.0055 | 0.738 ± 0.019 | 0.654 ± 0.0092 | 0.752 ± 0.023 | 0.671 ± 0.053 | 0.663 ± 0.02 | 0.709 ± 0.0089
